Measurements reported in publication PMC12681835.

What was measured:
Assay in all cases: co-IP; HEK293 cells co-transfected with AnkB-220-HA (WT or mutant) and NrCAM plasmids in equimolar amounts; Brij98 lysate diluted in PBS, 0.1% TritonX-100; AnkB-HA precipitated with mouse anti-HA on Protein A/G magnetic beads overnight at 4 °C; blot for NrCAM, reprobed with anti-HA; NrCAM/AnkB ratio by densitometry
[1] = target: AnkB-220-HA H374A (human)
[2] = target: AnkB-220-HA R308E (human)
[3] = target: AnkB-220-HA H374W (human)
[4] = target: AnkB-220-HA R297E (human)
[5] = target: AnkB-220-HA A373V (maternally inherited ASD missense mutation) (human)

- percent decrease of co-immunoprecipitation compared to WT AnkB [1]: 80%
- percent decrease of co-immunoprecipitation compared to WT AnkB [2]: 90%
- percent decrease of co-immunoprecipitation compared to WT AnkB [3]: 80%
- percent decrease of co-immunoprecipitation compared to WT AnkB [4]: 60%
- fold increase of co-immunoprecipitation compared to WT AnkB [5]: 1.7 fold
Substance: Neuron-glial related L1-CAM (NrCAM), mouse, WT (natural protein)
